This passage reports self-cleavage results from the RNAGym collection of RNA variant scans (doi:10.7554/elife.90254).

B1: LINE1-full (parent)
chain: UACGUAGGUGGUUUUCCCCUGAUAGUGCUAAGGGGGCCUGGAAGUUUGGACUGGGCAGAGCUCAACACAGCGUGGCAAAGUGGCUGUGGCUAGACUGCCUCUCUGGAUUCCUCGUCACUCAGCAGGGCAUCUCUGAGAGAAAUGCC

Variants of B1 are the subject of the data set. Description: self-cleavage, relative activity (ratio to wild type); higher = more cleavage; in vitro, sequencing; the parent is a self-cleaving ribozyme.
For the variant UACGUAGGUGGUUUUCCCCUGAUAGUGCUAAGGGGGCCUGGAAGUUUGGACUGGGCAGAGCUCAACACAGCGUGGCAAAGUGGCUGUGGCUAGACUGCCUCUCUGGAUUCCUCGUCACUCAGCAGGGCAUCUCUGGGAGGAAUGCC, the self-cleavage was found to be 1.51. The value for UACGUAGGUGGUUUUCCCCUGAUAGUGCUAAGGGGGCCUGGAAGUUUGGACUGGGCAGAGCUCAACACAGCGUGGCAAAGUGGCUGUGGCUAGACUGCCUCUCUGGAUUCCUCGUCACUCAGCAGGGCAUCUCAUAGAGAAAUGCC was 1.21; that for UACGUAGGUGGUUUUCCCCUGAUAGUGCUAAGGGGGCCUGGAAGUUUGGACUGGGCAGAGCUCAACACAGCGUGGCAAAGUGGCUGUGGCUAGACUGCCUCUCUGGAUUCCUCGUCACUCAGCAGGGCAUCUUUGAGAGAGAUGCC was 1.4; that for UACGUAGGUGGUUUUCCCCUGAUAGUGCUAAGGGGGCCUGGAAGUUUGGACUGGGCAGAGCUCAACACAGCGUGGCAAAGUGGCUGUGGCUAGACUGCCUCUCUGGAUUCCUCGUCACUCAGCAGGGCAUCUUUGGGAGAAAUGCC was 0.49.

As for UACGUAGGUGGUUUUCCCCUGAUAGUGCUAAGGGGGCCUGGAAGUUUGGACUGGGCAGAGCUCAACACAGCGUGGCAAAGUGGCUGUGGCUAGACUGCCUCUCUGGAUUCCUCGUCACUCAGCAGGGCAUCUCUAAGAGGAAUGCC, the self-cleavage amounted to 1.18.

With UACGUAGGUGGUUUUCCCCUGAUAGUGCUAAGGGGGCCUGGAAGUUUGGACUGGGCAGAGCUCAACACAGCGUGGCAAAGUGGCUGUGGCUAGACUGCCUCUCUGGAUUCCUCGUCACUCAGCAGGGCAUCUCUUAGAGAAACGCC, the self-cleavage was 1.63. The value for UACGUAGGUGGUUUUCCCCUGAUAGUGCUAAGGGGGCCUGGAAGUUUGGACUGGGCAGAGCUCAACACAGCGUGGCAAAGUGGCUGUGGCUAGACUGCCUCUCUGGAUUCCUCGUCACUCAGCAGGGCAUCUAUGAGAGCAAUGCC was 1.3; that for UACGUAGGUGGUUUUCCCCUGAUAGUGCUAAGGGGGCCUGGAAGUUUGGACUGGGCAGAGCUCAACACAGCGUGGCAAAGUGGCUGUGGCUAGACUGCCUCUCUGGAUUCCUCGUCACUCAGCAGGGCAUCUCUUAGAGUAAUGCC was 1.13; that for UACGUAGGUGGUUUUCCCCUGAUAGUGCUAAGGGGGCCUGGAAGUUUGGACUGGGCAGAGCUCAACACAGCGUGGCAAAGUGGCUGUGGCUAGACUGCCUCUCUGGAUUCCUCGUCACUCAGCAGGGCAUCUCGGAGAGAAAGGCC was 0.88. The value for UACGUAGGUGGUUUUCCCCUGAUAGUGCUAAGGGGGCCUGGAAGUUUGGACUGGGCAGAGCUCAACACAGCGUGGCAAAGUGGCUGUGGCUAGACUGCCUCUCUGGAUUCCUCGUCACUCAGCAGGGCAUCUAUGAGAGAAAUGAC was 1.51; that for UACGUAGGUGGUUUUCCCCUGAUAGUGCUAAGGGGGCCUGGAAGUUUGGACUGGGCAGAGCUCAACACAGCGUGGCAAAGUGGCUGUGGCUAGACUGCCUCUCUGGAUUCCUCGUCACUCAGCAGGGCAUCUCUGCGAGAAAAGCC was 1.51. The value for UACGUAGGUGGUUUUCCCCUGAUAGUGCUAAGGGGGCCUGGAAGUUUGGACUGGGCAGAGCUCAACACAGCGUGGCAAAGUGGCUGUGGCUAGACUGCCUCUCUGGAUUCCUCGUCACUCAGCAGGGCAUCGCUGAGGGAAAUGCC was 1.35; that for UACGUAGGUGGUUUUCCCCUGAUAGUGCUAAGGGGGCCUGGAAGUUUGGACUGGGCAGAGCUCAACACAGCGUGGCAAAGUGGCUGUGGCUAGACUGCCUCUCUGGAUUCCUCGUCACUCAGCAGGGCAUCCCUGAGAGAAACGCC was 1.24.

In the case of UACGUAGGUGGUUUUCCCCUGAUAGUGCUAAGGGGGCCUGGAAGUUUGGACUGGGCAGAGCUCAACACAGCGUGGCAAAGUGGCUGUGGCUAGACUGCCUCUCUGGAUUCCUCGUCACUCAGCAGGGCAUCUCAGAGAGAUAUGCC, the self-cleavage amounted to 1.12. As for UACGUAGGUGGUUUUCCCCUGAUAGUGCUAAGGGGGCCUGGAAGUUUGGACUGGGCAGAGCUCAACACAGCGUGGCAAAGUGGCUGUGGCUAGACUGCCUCUCUGGAUUCCUCGUCACUCAGCAGGGCAUCUAUGAGAGAAAUGCC, the self-cleavage came out at 1.37. For UACGUAGGUGGUUUUCCCCUGAUAGUGCUAAGGGGGCCUGGAAGUUUGGACUGGGCAGAGCUCAACACAGCGUGGCAAAGUGGCUGUGGCUAGACUGCCUCUCUGGAUUCCUCGUCACUCAGCAGGGCAUCUUUGAGAGAAAUGCC, the self-cleavage is 1.16.

Take UACGUAGGUGGUUUUCCCCUGAUAGUGCUAAGGGGGCCUGGAAGUUUGGACUGGGCAGAGCUCAACACAGCGUGGCAAAGUGGCUGUGGCUAGACUGCCUCUCUGGAUUCCUCGUCACUCAGCAGGGCAUCGCUGAGAGAGAUGCC: the self-cleavage stood at 1.22. The value for UACGUAGGUGGUUUUCCCCUGAUAGUGCUAAGGGGGCCUGGAAGUUUGGACUGGGCAGAGCUCAACACAGCGUGGCAAAGUGGCUGUGGCUAGACUGCCUCUCUGGAUUCCUCGUCACUCAGCAGGGCAUCUUUGAGAGGAAUGCC was 1.05; that for UACGUAGGUGGUUUUCCCCUGAUAGUGCUAAGGGGGCCUGGAAGUUUGGACUGGGCAGAGCUCAACACAGCGUGGCAAAGUGGCUGUGGCUAGACUGCCUCUCUGGAUUCCUCGUCACUCAGCAGGGCAUCUCAGAGAGAAGUGCC was 1.18; that for UACGUAGGUGGUUUUCCCCUGAUAGUGCUAAGGGGGCCUGGAAGUUUGGACUGGGCAGAGCUCAACACAGCGUGGCAAAGUGGCUGUGGCUAGACUGCCUCUCUGGAUUCCUCGUCACUCAGCAGGGCAUCUCCGGGAGAAAUGCC was 1.75. Then UACGUAGGUGGUUUUCCCCUGAUAGUGCUAAGGGGGCCUGGAAGUUUGGACUGGGCAGAGCUCAACACAGCGUGGCAAAGUGGCUGUGGCUAGACUGCCUCUCUGGAUUCCUCGUCACUCAGCAGGGCAUCUCCGUGAGAAAUGCC, with 1.26; and UACGUAGGUGGUUUUCCCCUGAUAGUGCUAAGGGGGCCUGGAAGUUUGGACUGGGCAGAGCUCAACACAGCGUGGCAAAGUGGCUGUGGCUAGACUGCCUCUCUGGAUUCCUCGUCACUCAGCAGGGCAUCUCAGAGAGAAAUGCU, with 0.6; and UACGUAGGUGGUUUUCCCCUGAUAGUGCUAAGGGGGCCUGGAAGUUUGGACUGGGCAGAGCUCAACACAGCGUGGCAAAGUGGCUGUGGCUAGACUGCCUCUCUGGAUUCCUCGUCACUCAGCAGGGCAUCUUUGAGCGAAAUGCC, with 1.74.

Turning to UACGUAGGUGGUUUUCCCCUGAUAGUGCUAAGGGGGCCUGGAAGUUUGGACUGGGCAGAGCUCAACACAGCGUGGCAAAGUGGCUGUGGCUAGACUGCCUCUCUGGAUUCCUCGUCACUCAGCAGGGCAUCUCCGAGAGUAAUGCC, the self-cleavage stood at 1.02. The value for UACGUAGGUGGUUUUCCCCUGAUAGUGCUAAGGGGGCCUGGAAGUUUGGACUGGGCAGAGCUCAACACAGCGUGGCAAAGUGGCUGUGGCUAGACUGCCUCUCUGGAUUCCUCGUCACUCAGCAGGGCAUCUCCGAGAGAAAAGCC was 1.37. Then UACGUAGGUGGUUUUCCCCUGAUAGUGCUAAGGGGGCCUGGAAGUUUGGACUGGGCAGAGCUCAACACAGCGUGGCAAAGUGGCUGUGGCUAGACUGCCUCUCUGGAUUCCUCGUCACUCAGCAGGGCAUCUCCGAGAGAAACGCC, with 1.21; and UACGUAGGUGGUUUUCCCCUGAUAGUGCUAAGGGGGCCUGGAAGUUUGGACUGGGCAGAGCUCAACACAGCGUGGCAAAGUGGCUGUGGCUAGACUGCCUCUCUGGAUUCCUCGUCACUCAGCAGGGCAUCUCCGAGAGAAGUGCC, with 1.42.

For UACGUAGGUGGUUUUCCCCUGAUAGUGCUAAGGGGGCCUGGAAGUUUGGACUGGGCAGAGCUCAACACAGCGUGGCAAAGUGGCUGUGGCUAGACUGCCUCUCUGGAUUCCUCGUCACUCAGCAGGGCAUCUAUGUGAGAAAUGCC, the self-cleavage was found to be 1.38. The value for UACGUAGGUGGUUUUCCCCUGAUAGUGCUAAGGGGGCCUGGAAGUUUGGACUGGGCAGAGCUCAACACAGCGUGGCAAAGUGGCUGUGGCUAGACUGCCUCUCUGGAUUCCUCGUCACUCAGCAGGGCAUCUCCGAGUGAAAUGCC was 1.65; that for UACGUAGGUGGUUUUCCCCUGAUAGUGCUAAGGGGGCCUGGAAGUUUGGACUGGGCAGAGCUCAACACAGCGUGGCAAAGUGGCUGUGGCUAGACUGCCUCUCUGGAUUCCUCGUCACUCAGCAGGGCAUCUCUAAGGGAAAUGCC was 1.82; that for UACGUAGGUGGUUUUCCCCUGAUAGUGCUAAGGGGGCCUGGAAGUUUGGACUGGGCAGAGCUCAACACAGCGUGGCAAAGUGGCUGUGGCUAGACUGCCUCUCUGGAUUCCUCGUCACUCAGCAGGGCAUCUCAGAGGGAAAUGCC was 1.63. Then UACGUAGGUGGUUUUCCCCUGAUAGUGCUAAGGGGGCCUGGAAGUUUGGACUGGGCAGAGCUCAACACAGCGUGGCAAAGUGGCUGUGGCUAGACUGCCUCUCUGGAUUCCUCGUCACUCAGCAGGGCAUCUCAGAGUGAAAUGCC, with 1.72; and UACGUAGGUGGUUUUCCCCUGAUAGUGCUAAGGGGGCCUGGAAGUUUGGACUGGGCAGAGCUCAACACAGCGUGGCAAAGUGGCUGUGGCUAGACUGCCUCUCUGGAUUCCUCGUCACUCAGCAGGGCAUCUCUGGGAGAAAUGCC, with 1.27. The value for UACGUAGGUGGUUUUCCCCUGAUAGUGCUAAGGGGGCCUGGAAGUUUGGACUGGGCAGAGCUCAACACAGCGUGGCAAAGUGGCUGUGGCUAGACUGCCUCUCUGGAUUCCUCGUCACUCAGCAGGGCAUCUCUGCGAGAAAUGCC was 1.34; that for UACGUAGGUGGUUUUCCCCUGAUAGUGCUAAGGGGGCCUGGAAGUUUGGACUGGGCAGAGCUCAACACAGCGUGGCAAAGUGGCUGUGGCUAGACUGCCUCUCUGGAUUCCUCGUCACUCAGCAGGGCAUCUCUAGGAGAAAUGCC was 1.61; that for UACGUAGGUGGUUUUCCCCUGAUAGUGCUAAGGGGGCCUGGAAGUUUGGACUGGGCAGAGCUCAACACAGCGUGGCAAAGUGGCUGUGGCUAGACUGCCUCUCUGGAUUCCUCGUCACUCAGCAGGGCAUCUUUGAGAGAAGUGCC was 1.14. In the case of UACGUAGGUGGUUUUCCCCUGAUAGUGCUAAGGGGGCCUGGAAGUUUGGACUGGGCAGAGCUCAACACAGCGUGGCAAAGUGGCUGUGGCUAGACUGCCUCUCUGGAUUCCUCGUCACUCAGCAGGGCAUCUCAGAGAGAAACGCC, the self-cleavage was 0.63. The value for UACGUAGGUGGUUUUCCCCUGAUAGUGCUAAGGGGGCCUGGAAGUUUGGACUGGGCAGAGCUCAACACAGCGUGGCAAAGUGGCUGUGGCUAGACUGCCUCUCUGGAUUCCUCGUCACUCAGCAGGGCAUCUCAGAGAGAAAAGCC was 0.77; that for UACGUAGGUGGUUUUCCCCUGAUAGUGCUAAGGGGGCCUGGAAGUUUGGACUGGGCAGAGCUCAACACAGCGUGGCAAAGUGGCUGUGGCUAGACUGCCUCUCUGGAUUCCUCGUCACUCAGCAGGGCAUCUCCGAGAGAAAUACC was 1.18.
